Data on twelve molecules can be found in US11738082B2, “High concentration protein formulations with reduced viscosity” (Bhami's Research Laboratory, Pvt. Ltd., priority 2017, dated 2023).

The subject of data set [1] is Human Gamma Globulin (HGG), GLOBUCEL®. The experiment in a line: Viscosity of aqueous solutions of Human Gamma Globulin (Cambridge VISCOlab5000 or DV2T cone and plate viscometer). The settings on record: for Viscosity, cP: HGG 220 mg/mL, excipient 10 mg/mL, 25° C.
Description: Commercially obtained human gamma globulin (HGG), GLOBUCEL® (50 mg/mL) containing pharmaceutical excipients (Maltose) was dialyzed against water for 24 hr at 4° C. with three changes. To the aqueous solution of HGG, either histidine or phosphate or citrate buffer was added from the stock concentration of 1000 mM for histidine buffer or 1000 mM for citrate buffer or 1000 mM for phosphate buffer, pH 6.0 to get a final concentration of 25 mM each. The HGG solutions in various buffers were concentrated to a final volume of less than 150 μL using Vivaspin centrifugal concentrators (Sartorius). The collected protein sample was stored at 4° C. […] The protein concentrations were experimentally determined using the extinction coefficient of 1.4
[formula] at 280 nm. The viscosities of the solution were measured either using a Cambridge Viscometer, VISCOlab5000 using 70 μL of sample at 25° C. or using a DV2T cone and plate viscometer using 1.5 mL of sample at 25° C. at extrapolated zero shear rate.
Commercially obtained human gamma globulin (HGG), GLOBUCEL® (50 mg/mL) containing pharmaceutical excipients (Maltose) was dialyzed against water for 24 hr at 4° C. with three changes. To the aqueous solution of HGG, either citrate-phosphate buffer pH 5.0 or citrate-phosphate buffer pH 6.0 or citrate-phosphate buffer pH 7.0 was added from the stock concentration of 1000 mM for citrate buffer at pH 5.0 or pH 6.0 or pH 7.0 to get a final concentration of 25 mM each. The HGG solutions in various pH buffers were concentrated to a final volume of less than 150 μL using Vivaspin centrifugal concentrators (Sartorius). The collected protein sample was stored at 4° C. […] The protein concentrations were experimentally determined using the extinction coefficient of 1.4
Commercially obtained human gamma globulin (HGG), GLOBUCEL® (50 mg/mL) containing pharmaceutical excipients (Maltose) was dialyzed against water for 24 hr at 4° C. with three changes. To the aqueous solution of HGG, phosphate/citrate/histidine Buffer was added from the stock concentration of 1000 mM phosphate/citrate/histidine buffer, pH 6.0 to get a final concentration of 25 mM. To the buffered HGG different amino acid or its derivative was added individually and mixed until complete dissolution. The excipient containing HGG was concentrated to a final volume of less than 150 μL using Vivaspin centrifugal concentrators (Sartorius). The collected protein sample was stored at 4° C. […] The protein concentrations were experimentally determined using the extinction coefficient of 1.4
Commercially obtained human gamma globulin (HGG), GLOBUCEL® (50 mg/mL) containing pharmaceutical excipients (Maltose) was dialyzed against water for 24 hr at 4° C. with three changes. To the aqueous solution of HGG, phosphate/citrate/histidine Buffer was added from the stock concentration of 1000 mM phosphate/citrate/histidine buffer, pH 6.0 to get a final concentration of 25 mM. To the buffered HGG, different nucleosides or nucleotides or its derivative was added individually and mixed until complete dissolution. The excipient containing HGG was concentrated to a final volume of less than 150 μL using Vivaspin centrifugal concentrators (Sartorius). The collected protein sample was stored at 4° C.
Data set [2] relates to Bevacizumab (AVASTIN®). The experiment in a line: Size Exclusion Chromatography of formulated Bevacizumab on storage. The settings on record: storage at 25° C., formulated with tryptophan + nicotinic acid (acid form), SEC. The data set is classed as physicochemical. For orientation: Size exclusion chromatography separates by hydrodynamic size, large species first.
Description: The collected protein sample was stored at 4° C. […] Reported protein concentrations represent the range of all protein samples in each Table or Figure. Specifically, reported values are the median plus or minus half the range. The protein concentrations were experimentally determined using the extinction coefficient of 1.54
Data set [3] concerns the target T1, Etanercept (ENBREL®) (Homo sapiens, UniProt P20333).
T1 construct: purchased ENBREL®
The experiment in a line: Viscosity of Etanercept solutions (VISCOlab5000 or DV2T cone and plate viscometer). The class given is physicochemical. The settings on record: for Viscosity, cP: 25 mM phosphate buffer pH 6.0, 25° C. The protocol: Commercially obtained Etanercept, ENBREL®, 25 mg as a lyophilized powder (25 mg Etanercept, 40 mg mannitol, 10 mg sucrose, and 1.2 mg Tromethamine and for reconstitution 0.9% benzyl alcohol in water) was dialyzed against 25 mM phosphate buffer, pH 6.0 for 24 hr at 4° C. with three changes. To the dialysed Etanercept different viscosity-reducing agent(s) was added individually or in combination and mixed until complete dissolution. […] The collected protein sample was stored at 4° C.
[formula] at 280 nm. […] Results
Commercially obtained Etanercept, ENBREL®, 25 mg as a lyophilized powder (25 mg Etanercept, 40 mg mannitol, 10 mg sucrose, and 1.2 mg Tromethamine and for reconstitution 0.9% benzyl alcohol in water) was dialyzed against 25 mM phosphate buffer, pH 6.0 for 24 hr at 4° C. with three changes.
To the dialysed samples of above protein agents, a combination of viscosity-reducing agents nicotinic acid (acid form) and tryptophan were added and mixed until complete dissolution. […] The collected protein samples were stored at 4° C.

For data set [4], the system named is Rituximab (RITUXAN®). In words: Percent reduction in aggregation of Rituximab by Size Exclusion Chromatography. The data set is classed as physicochemical. The settings on record: with nicotinic acid and tryptophan, 250-275 mg/mL, versus control at 0 time point = 100%. Here is the method: To the buffered antibody solutions, different aggregation reducing-agents were added individually or in combination and mixed until complete dissolution. […] The collected protein sample was stored at 4° C. […] The amount of reduction in aggregation is calculated setting the values at 0 time point equal to 100% in control (without any aggregation-reducing agent) and the reduction in aggregation in test samples (with aggregation-reducing agent) is expressed as percent reduction when compared to control at 0 time point.

Data set [5] deals with Rituximab (RITUXAN®). The experiment in a line: Size Exclusion Chromatography of formulated Rituximab on storage. The class given is physicochemical. Conditions: storage at 25° C., formulated with tryptophan + nicotinic acid (acid form), 250 mg/mL, SEC.
Description: The collected protein sample was stored at 4° C. […] The protein concentrations were experimentally determined using the extinction coefficient of 1.7

Counter-ions that a name gives are not always drawn.

T1 sequence (P20333 with tags, fused parts or gaps limits assumed): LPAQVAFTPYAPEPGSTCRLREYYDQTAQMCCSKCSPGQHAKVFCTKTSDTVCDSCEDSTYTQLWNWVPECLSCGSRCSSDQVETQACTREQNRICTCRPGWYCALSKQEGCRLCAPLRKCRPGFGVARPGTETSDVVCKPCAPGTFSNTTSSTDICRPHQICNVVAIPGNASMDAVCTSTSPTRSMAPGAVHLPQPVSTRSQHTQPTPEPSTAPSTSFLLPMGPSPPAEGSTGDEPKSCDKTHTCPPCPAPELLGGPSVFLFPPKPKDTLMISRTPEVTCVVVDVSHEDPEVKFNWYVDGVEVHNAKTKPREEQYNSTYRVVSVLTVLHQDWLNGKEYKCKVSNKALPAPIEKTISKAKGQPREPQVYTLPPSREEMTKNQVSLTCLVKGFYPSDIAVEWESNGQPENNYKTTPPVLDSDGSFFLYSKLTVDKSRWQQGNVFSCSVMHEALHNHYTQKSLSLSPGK

As for `Cc1ncc(C[n+]2csc(CCO)c2C)c(N)n1` [Thiamine-HCl], the “Viscosity (cP) @ 25° C.” value in data set [1] (HGG 179 mg/mL, excipient 10 mg/mL (30 mM), 25 mM phosphate buffer pH 6.0) was determined as 24 cP; in data set [1] (HGG 200 mg/mL, excipient 10 mg/mL (30 mM), 25 mM histidine buffer pH 6.0), 29 cP; in data set [1] (HGG 200 mg/mL, excipient 27.3 mg/mL (81 mM), 25 mM phosphate buffer pH 6.0) it was 34 cP; in data set [1] (HGG 246 mg/mL, excipient 27.3 mg/mL (81 mM), 25 mM phosphate buffer pH 6.0), 91 cP; in data set [1] (HGG 248 mg/mL, excipient 10 mg/mL (30 mM), 25 mM phosphate buffer pH 6.0), 92 cP; in data set [1] (HGG 294 mg/mL, excipient 10 mg/mL (30 mM), 25 mM citrate buffer pH 6.0) it was 185 cP. Also, the “Viscosity, cP” value turned out to be 95 cP in data set [1] (histidine buffer pH 6.0) and 65 cP in data set [1] (phosphate buffer pH 6.0).
For the molecule `Cc1cn([C@H]2C[C@H](O)[C@@H](CO)O2)c(=O)[nH]c1=O` [Thymidine], the “Viscosity (cP) @ 25° C.” value in data set [1] (HGG 161 mg/mL, excipient 10 mg/mL (41 mM), 25 mM phosphate buffer pH 6.0) stood at 60 cP.
As for `OC[C@H]1O[C@H](O[C@H]2O[C@H](CO)[C@@H](O)[C@H](O)[C@H]2O)[C@H](O)[C@@H](O)[C@@H]1O` [Trehalose dihydrate], the “Viscosity (cP) @ 25° C.” value was 87 cP in data set [1] (HGG 217 mg/mL, excipient 20 mg/mL (53 mM), 25 mM citrate buffer pH 6.0) and 54 cP in data set [1] (HGG 246 mg/mL, excipient 20 mg/mL (53 mM), 25 mM phosphate buffer pH 6.0).
Regarding `N[C@@H](Cc1c[nH]c2ccccc12)C(=O)O` [Tryptophan], the “Viscosity (cP) @ 25° C.” value in data set [1] (HGG 200 mg/mL, excipient 6 mg/mL (29 mM), 25 mM phosphate buffer pH 6.0) is 14 cP; in data set [1] (HGG 231 mg/mL, excipient 6 mg/mL (29 mM), 25 mM citrate buffer pH 6.0), 60 cP; in data set [1] (HGG 243 mg/mL, excipient 6 mg/mL (29 mM), 25 mM phosphate buffer pH 6.0), 35 cP; in data set [1] (HGG 256 mg/mL, excipient 6 mg/mL (29 mM), 25 mM histidine buffer pH 6.0) it was 18 cP.
For the molecule `Cl.NCCc1ccc(O)cc1` [Tyramine-HCl], the “Viscosity (cP) @ 25° C.” value in data set [1] (HGG 215 mg/mL, excipient 10 mg/mL (58 mM), 25 mM phosphate buffer pH 6.0) is 145 cP.
With `O=c1cc[nH]c(=O)[nH]1` [Uracil], in data set [1] (HGG 235 mg/mL, excipient 1 mg/mL (9 mM), 25 mM phosphate buffer pH 6.0), the “Viscosity (cP) @ 25° C.” value amounted to 140 cP.
For `O=c1ccn([C@@H]2O[C@H](CO)[C@@H](O)[C@H]2O)c(=O)[nH]1` [Uridine], the “Viscosity (cP) @ 25° C.” value in data set [1] (HGG 203 mg/mL, excipient 10 mg/mL (41 mM), 25 mM phosphate buffer pH 6.0) is on record as 28 cP.
For “Bevacizumab: Commercially obtained Bevacizumab, AVASTIN®, dialyzed against 25 mM phosphate buffer, pH 6.0”, in data set [2] (0 day), the “Degradation peak area (%)” value was “Nil” and the “Standard peak area (%)” value amounted to 99.39%. In data set [2] (7 days), the “Degradation peak area (%)” value was “Nil” and the “Standard peak area (%)” value amounted to 99.118%.
Turning to Etanercept, the “Viscosity, cP” value in data set [3] (Etanercept 50 mg/mL, with 10 mg/mL nicotinic acid (acid form) + 6 mg/mL tryptophan) was found to be 2 cP; in data set [3] (Etanercept 50 mg/mL, without excipient) it was 35 cP; in data set [3] (Etanercept 100 mg/mL, with 10 mg/mL nicotinic acid (acid form) + 6 mg/mL tryptophan), 3 cP; in data set [3] (Etanercept 100 mg/mL, without excipient), 72 cP; in data set [3] (Etanercept 150 mg/mL, with 10 mg/mL nicotinic acid (acid form) + 6 mg/mL tryptophan), 11 cP; in data set [3] (Etanercept 150 mg/mL, without excipient), 135 cP. Moreover, the “Viscosity, cP” value is on record as 17 cP in data set [3] (Etanercept 175 mg/mL, with 10 mg/mL nicotinic acid (acid form) + 6 mg/mL tryptophan); 160 cP in data set [3] (Etanercept 175 mg/mL, without excipient); 23 cP in data set [3] (Etanercept 200 mg/mL, with 10 mg/mL nicotinic acid (acid form) + 6 mg/mL tryptophan); 230 cP in data set [3] (Etanercept 200 mg/mL, without excipient); 40 cP in data set [3] (Etanercept 225 mg/mL, with 10 mg/mL nicotinic acid (acid form) + 6 mg/mL tryptophan); 345 cP in data set [3] (Etanercept 225 mg/mL, without excipient). Further, the “Viscosity, cP” value amounted to 65 cP in data set [3] (Etanercept 250 mg/mL, with 10 mg/mL nicotinic acid (acid form) + 6 mg/mL tryptophan); 439 cP in data set [3] (Etanercept 250 mg/mL, without excipient); 77 cP in data set [3] (Etanercept 275 mg/mL, with 10 mg/mL nicotinic acid (acid form) + 6 mg/mL tryptophan); 1130 cP in data set [3] (Etanercept 275 mg/mL, without excipient); 139 cP in data set [3] (Etanercept 300 mg/mL, with 10 mg/mL nicotinic acid (acid form) + 6 mg/mL tryptophan). In addition, the “magnitude of viscosity-reducing effects” value in data set [3] (Etanercept 275±10 mg/mL, nicotinic acid (acid form) and tryptophan added to phosphate buffer) was found to be 14.6 fold.
As to L-Pantothenic Acid hemicalcium salt, the “Viscosity (cP) @ 25° C.” value in data set [1] (HGG 182 mg/mL, excipient 10 mg/mL (42 mM), 25 mM phosphate buffer pH 6.0) is on record as 14 cP.
On to Polysorbate 80, for which the “Viscosity (cP) @ 25° C.” value is 78 cP in data set [1] (HGG 228 mg/mL, excipient 0.07%, 25 mM citrate buffer pH 6.0) and 84 cP in data set [1] (HGG 241 mg/mL, excipient 0.07%, 25 mM phosphate buffer pH 6.0).
Regarding “Rituximab: Commercially obtained Rituximab, RITUXAN®, dialyzed against 25 mM phosphate buffer, pH 6.0”, the “Percent reduction in aggregation” value is 90% in data set [4] (After 24 hours) and 100% in data set [4] (After 48 hours). For the same molecule, the “Aggregation peak area (%)” value is 1.027% in data set [5] (0 day) and 0.96% in data set [5] (7 days). Besides, the “Degradation peak area (%)” value in data set [5] (0 day) and in data set [5] (7 days) was “Nil” throughout.
